Patent US20160083466A1 (Regeneron, published 2016)

T1: human IL-25 expressed with a C-terminal myc-myc-hexahistidine tag (human)
T1 construct: also called human IL-25-MMH; hIL-25-MMH
T1 chain: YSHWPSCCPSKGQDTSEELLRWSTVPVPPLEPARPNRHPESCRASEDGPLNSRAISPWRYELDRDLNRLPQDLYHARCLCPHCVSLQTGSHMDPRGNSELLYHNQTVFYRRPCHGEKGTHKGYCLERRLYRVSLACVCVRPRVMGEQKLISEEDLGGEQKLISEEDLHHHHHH

T2: monkey IL-25 expressed with a C-terminal myc-myc-hexahistidine tag (M. fascicularis (cynomolgus monkey))
T2 construct: also called monkey IL-25-MMH; MfIL-25-MMH
T2 chain: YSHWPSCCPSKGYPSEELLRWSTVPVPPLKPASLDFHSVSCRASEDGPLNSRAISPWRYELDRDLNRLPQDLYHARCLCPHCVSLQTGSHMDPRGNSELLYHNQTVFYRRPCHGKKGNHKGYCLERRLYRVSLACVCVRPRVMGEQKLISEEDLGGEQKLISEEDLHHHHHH

T3: mouse IL-25 expressed with a C-terminal myc-myc-hexahistidine tag (mouse)
T3 construct: also called mouse IL-25-MMH; mIL-25-MMH
T3 chain: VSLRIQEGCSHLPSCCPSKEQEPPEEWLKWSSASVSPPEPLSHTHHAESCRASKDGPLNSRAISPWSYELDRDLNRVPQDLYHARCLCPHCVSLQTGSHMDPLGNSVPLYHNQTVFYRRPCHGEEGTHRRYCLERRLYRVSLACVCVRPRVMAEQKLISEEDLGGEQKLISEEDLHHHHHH

T4: rat IL-25 expressed with a C-terminal myc-myc-hexahistidine tag (rat)
T4 construct: also called rat IL-25-MMH
T4 chain: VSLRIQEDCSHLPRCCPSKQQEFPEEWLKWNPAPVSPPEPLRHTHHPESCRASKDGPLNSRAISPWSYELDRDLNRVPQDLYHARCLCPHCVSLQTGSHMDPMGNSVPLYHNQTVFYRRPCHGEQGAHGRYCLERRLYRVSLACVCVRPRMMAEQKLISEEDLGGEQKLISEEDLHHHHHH

B1: H4H10900P (antibody, human IgG4, V domains shown)
VH: QVQLQESGPGLVRPSETLSLICTVSGGSINSYYWSWIRQPPGKGLEWIGYIYYSGSTNYNPSLKSRVTISGDTSKNQFSLKLSSVTAADTAVYYCARGVIWNYELREFDYWGQGTLVTVSS
VL: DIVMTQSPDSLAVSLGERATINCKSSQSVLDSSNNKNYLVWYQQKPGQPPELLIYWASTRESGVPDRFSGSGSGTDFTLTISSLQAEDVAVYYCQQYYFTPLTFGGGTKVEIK
B2: H4H10864P (antibody, human IgG4, V domains shown)
VH: QVQLQESGPGLVKPSETLSLTCTVSGGSISNYFWSWIRQPPGKGLEWIGFNYNSGSTNYNPSLKSRVTISVDTSKNQFSLKLSSVTAADTAVYYCARGYNWNYEIAWFDPWGQGTLVTVSS
VL: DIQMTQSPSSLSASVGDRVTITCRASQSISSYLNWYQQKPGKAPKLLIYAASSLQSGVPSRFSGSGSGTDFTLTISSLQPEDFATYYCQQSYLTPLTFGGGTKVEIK
B3: H4H10901P (antibody, human IgG4, V domains shown)
VH: QLQLQESGPGLVRPSETLSLTCSVSSGSIRSSNYYWGWIRQPPGKGLEWIGNIYYSGNTFYNPSLKGRVTISVDTSKNQFSLKLSSVTATDTAVYYCARQGYSDYELNWFDPWGQGTLVTVSS
VL: DIVMTQSPDSLVLSLGERATFNCKSSQSVLDSSNNKNYLAWYQQKPGQPPKLLIYWASTRESGVPDRFSGSGSGTDFSLTISSLQAEDVALYYCQQFYNSPWTFGQGTKVEIK
B4: H4H10861P (antibody, human IgG4, V domains shown)
VH: QVQLQESGPGLVKPSETLSLTCTVSGASISNYYWSWIRQPPGKGLEWIGYIFYSGNTNYNPSLKSRVTISVDTSKNQFSLKLSSVTAADTAVYYCARVRFSDYELNWFDPWGQGTLVTVSS
VL: DIVMTQSPDSLAVFLGERATINCRSSQSVFLGSNNKNYLAWYQQKPGQPPKLLIYWASSRESGVPDRFSGSGSGTDFTLTINSLQAEDVAVYYCQQYFITPLTFGGGTKVEIK
B5: H4H10862P (antibody, human IgG4, V domains shown)
VH: QVQLQESGPGLVKPSETLSLTCTVSGGSISSYFWSWIRQAPGKGLEWIGFIDYSGSTNYNPSLKSRVTISVDTSKNQFSLKLNSVTAADTAVYYCARQEIINFELNWFDPWGQGTLVTVSS
VL: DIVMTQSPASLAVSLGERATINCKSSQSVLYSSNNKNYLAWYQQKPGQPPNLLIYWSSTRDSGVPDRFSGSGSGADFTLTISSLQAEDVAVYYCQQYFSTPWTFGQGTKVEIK
B6: H4H10903P (antibody, human IgG4, V domains shown)
VH: QVQLQESGPGLVKPSETLSLTCTVSGGSINSYSWTWIRQPPGKGLEWIGNIYNSENTNYNPSLKSRVTISVDTSKSQVSLKLNSVTAADTAVYYCARTYNWNYEIGAMGVWGQGTTVTVSS
VL: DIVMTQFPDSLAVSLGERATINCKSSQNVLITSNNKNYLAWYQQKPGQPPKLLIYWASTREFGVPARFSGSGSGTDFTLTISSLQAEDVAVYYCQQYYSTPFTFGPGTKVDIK
B7: H2M11008N (antibody, V domains shown)
VH: QVQLQESGPGLVKPSETLSLTCTVSGGSISSHYWSWIRQPPGKGLEWIGFIYYSGSTNFNPSLKSRVTISIDTSKNQFSLKLSSVTAADTAVYYCARHDYNDYELNYFDLWGRGTLASVSS
VL: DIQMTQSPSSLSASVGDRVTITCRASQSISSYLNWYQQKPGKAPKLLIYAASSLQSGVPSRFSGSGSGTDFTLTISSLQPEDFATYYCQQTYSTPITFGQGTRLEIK
notes: also called H2aM11008N
B8: H4H10906P (antibody, human IgG4, V domains shown)
VH: QVQLQESGPGLVKPSETLSLTCTVSGGSISSYYWSWIRQPPGKGLEWIGFIYYSGSTNYNPSLKSRVTISVDTSKNQFSLKLSSVTAADTAVYYCARHDSDYELYGMDVWGQGTTVTVSS
VL: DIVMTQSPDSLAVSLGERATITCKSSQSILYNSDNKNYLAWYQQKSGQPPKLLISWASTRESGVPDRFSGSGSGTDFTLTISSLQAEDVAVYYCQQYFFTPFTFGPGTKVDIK
B9: H1M11009N (antibody, mouse IgG1, V domains shown)
VH: EVQLVESGGGLVEPGGSLRLSCVASGFTFSNAWMNWVRQAPGKGLEWVGHIERKTDGGTTDFAAPVKGRFTISRDDSKNTLYLQMNSLKTEDTAVYYCTTVGPYSVPFDYWGQGTLVTVSS
VL: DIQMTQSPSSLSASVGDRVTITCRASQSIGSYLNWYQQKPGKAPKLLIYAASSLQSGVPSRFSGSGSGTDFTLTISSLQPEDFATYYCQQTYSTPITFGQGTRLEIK
notes: also called 12

Experiments:
[1] = target: T1, human IL-25 expressed with a C-terminal …; assay: SPR Biacore, captured mAb, 25°C;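 on 100 nM Human IL-25-MMH Bound (RU): biacore 4000 SPR with IL-25-MMH as analyte over purified anti-IL-25 antibodies, association and dissociation rates derived from fitting sensorgrams to a 1:1 binding model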;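 on 100 nM Monkey IL-25-MMH Bound (RU): Real-time surface plasmon resonance on a Biacore 4000, with IL-25-MMH binding to purified anti-IL-25 antibodies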
Protocol: (§1) Equilibrium dissociation constants (KD values) for IL-25 binding to purified anti-IL-25 antibodies were determined using a real-time surface plasmon resonance biosensor assay on a Biacore 4000 instrument (GE Healthcare). […] All the IL-25 reagents were expressed with a C-terminal myc-myc-hexahistidine tag (referred to herein as “IL-25-MMH”). […] Kinetic association (kₐ) and dissociation (kd) rate constants were determined by fitting the real-time sensorgrams to a 1:1 binding model using Scrubber 2.0c curve fitting software.

[2] = target: T1, human IL-25 expressed with a C-terminal …; assay: SPR Biacore, captured mAb, 37°C
Protocol: as §1

[3] = target: T2, monkey IL-25 expressed with a …; assay: SPR Biacore, captured mAb, 25°C;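 on 100 nM Human IL-25-MMH Bound (RU): biacore 4000 SPR with IL-25-MMH as analyte over purified anti-IL-25 antibodies, association and dissociation rates derived from fitting sensorgrams to a 1:1 binding model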;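 on 100 nM Monkey IL-25-MMH Bound (RU): Real-time surface plasmon resonance on a Biacore 4000, with IL-25-MMH binding to purified anti-IL-25 antibodies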
Protocol: as §1

[4] = target: T3, mouse IL-25 expressed with a C-terminal …; assay: SPR Biacore, captured mAb, 25°C and 37°C
Protocol: as §1

[5] = target: T4, rat IL-25 expressed with a C-terminal …; assay: SPR Biacore, captured mAb, 25°C and 37°C
Protocol: as §1

| Binder | 100 nM Human IL-25-MMH Bound (RU) [1] | Kd [1] | koff [1] | kon [1] | t½ [1] | 100 nM Human IL-25-MMH Bound (RU) [2] | Kd [2] | koff [2] | kon [2] | t½ [2] | 100 nM Monkey IL-25-MMH Bound (RU) [3] | Kd [3] | koff [3] | kon [3] | t½ [3] | binding result [4] | binding result [5] |
| --- | --- | --- | --- | --- | --- | --- | --- | --- | --- | --- | --- | --- | --- | --- | --- | --- | --- |
| B1 | 43 RU | 15.8 pM | 2.75e-05 s⁻¹ | 1.74e+06 M⁻¹ s⁻¹ | 7.02 h | 51 RU | 35 pM | 9.91e-05 s⁻¹ | 2.83e+06 M⁻¹ s⁻¹ | 1.95 h | 45 RU | 4.02 pM | 1.18e-05 s⁻¹ | 2.94e+06 M⁻¹ s⁻¹ | 16.3 h | no binding (tested: 100 nM) | no binding (tested: 100 nM) |
| B2 | 75 RU | 16.8 pM | 4.51e-05 s⁻¹ | 2.68e+06 M⁻¹ s⁻¹ | 4.27 h | 94 RU | 52.6 pM | 0.000196 s⁻¹ | 3.73e+06 M⁻¹ s⁻¹ | 0.983 h | 78 RU | 12.8 pM | 4.7e-05 s⁻¹ | 3.68e+06 M⁻¹ s⁻¹ | 4.1 h | no binding (tested: 100 nM) | no binding (tested: 100 nM) |
| B3 | 62 RU | 25.4 pM | 5.79e-05 s⁻¹ | 2.28e+06 M⁻¹ s⁻¹ | 3.32 h | 65 RU | 65.1 pM | 0.000208 s⁻¹ | 3.19e+06 M⁻¹ s⁻¹ | 0.933 h | 64 RU | 11.6 pM | 3.06e-05 s⁻¹ | 2.63e+06 M⁻¹ s⁻¹ | 6.28 h | no binding (tested: 100 nM) | no binding (tested: 100 nM) |
| B4 | 47 RU | 11.6 pM | 2.34e-05 s⁻¹ | 2.01e+06 M⁻¹ s⁻¹ | 8.22 h | 63 RU | 26.8 pM | 7.8e-05 s⁻¹ | 2.91e+06 M⁻¹ s⁻¹ | 2.47 h | 48 RU | 4.54 pM | 1.48e-05 s⁻¹ | 3.26e+06 M⁻¹ s⁻¹ | 13 h | no binding (tested: 100 nM) | no binding (tested: 100 nM) |
| B5 | 56 RU | 34.4 pM | 6.49e-05 s⁻¹ | 1.88e+06 M⁻¹ s⁻¹ | 2.97 h | 72 RU | 87.9 pM | 0.00021 s⁻¹ | 2.39e+06 M⁻¹ s⁻¹ | 0.917 h | 58 RU | 25.5 pM | 5.1e-05 s⁻¹ | 2e+06 M⁻¹ s⁻¹ | 3.77 h | no binding (tested: 100 nM) | no binding (tested: 100 nM) |
| B6 | 54 RU | 19.2 pM | 1.73e-05 s⁻¹ | 897000 M⁻¹ s⁻¹ | 11.2 h | 65 RU | 50.8 pM | 7.75e-05 s⁻¹ | 1.53e+06 M⁻¹ s⁻¹ | 2.48 h | 57 RU | ≤ 8.71 pM | ≤ 1e-05 s⁻¹ | 1.15e+06 M⁻¹ s⁻¹ | 19.2 h | no binding (tested: 100 nM) | no binding (tested: 100 nM) |
| B7 | 48 RU | 435 pM | 0.00021 s⁻¹ | 482000 M⁻¹ s⁻¹ | 0.917 h | 60 RU | 1080 pM | 0.000793 s⁻¹ | 734000 M⁻¹ s⁻¹ | 0.25 h |  |  |  |  |  | no binding (tested: 100 nM) | no binding (tested: 100 nM) |
| B8 | 61 RU | 26.4 pM | 4.32e-05 s⁻¹ | 1.64e+06 M⁻¹ s⁻¹ | 4.47 h | 72 RU | 52.9 pM | 0.000154 s⁻¹ | 2.9e+06 M⁻¹ s⁻¹ | 1.25 h | 61 RU | 14.1 pM | 2.95e-05 s⁻¹ | 2.09e+06 M⁻¹ s⁻¹ | 6.52 h | no binding (tested: 100 nM) | no binding (tested: 100 nM) |
| B9 | 30 RU | 12500 pM | 0.00304 s⁻¹ | 242000 M⁻¹ s⁻¹ | 0.0667 h | 30 RU | 21100 pM | 0.00829 s⁻¹ | 393000 M⁻¹ s⁻¹ | 0.0233 h |  |  |  |  |  | no binding (tested: 100 nM) | no binding (tested: 100 nM) |
